Assay: yeast display, Sf9 membrane polyspecificity reagent, FACS + sequencing; frameworks hold sequencing errors
Outline: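 Galactose-induced (36–48 hours) yeast carrying a synthetic nanobody display library were exposed to 10% biotinylated, detergent-solubilized Sf9 membrane reagent at 4 °C for 1 hour. FACS followed streptavidin microbead enrichment, using low and high (top ~1%) gates for expression (anti-HA) and reagent binding (streptavidin). Colony PCR, MiSeq 2 × 250 sequencing and CDR-length filtering followed. Labels for polyreactivity reflect the gate of origin.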

Sequence	polyreactivity (PSR sort gate)
QVQLVESGGGLVQAGGSLRLSCAASGSIFDDYAMGWYRQAPGKERELVAAITSGGSTYYADSVKGRFTISRDNAKKTVYLLMYSLKPEDTAVYFRATRYHWSSSFAPVGAYGYWGQGTQVTVSS	low polyreactivity
QVQLVESGGGLVQAGGSLRLSCAASGSIFDFNAMGWYRQAPGKERELVAAITWGGGSTYYADSVKGRFTISRDNAKNTVYLQMNSLKPEDTAVYYCNAAYGRYRYDYWGQGTQVTVSS	low polyreactivity
QVQLVESGGGLVQAGGSLRLSCAASGSIFDFYAMGRYRQAPGKERELVAAISYSGSSTYYADSVKGRFTISRDNAKNTVYLQMNSLKPEDTAVDYCATDYPGGYVYYSRFDYWGQGTQVTVSS	low polyreactivity
QVQLVESGGGLVQAGGSLRLSCAASGSIFDFYAMGWYRQAPGKERELVAAINSGGRTYADSVKGRFTISRDNAKNTVYLQMNSLKPEDTAVYYCAAEYQYLSVEVTDIWYLTKYDYWGQGTQVTVSS	low polyreactivity
QVQLVESGGGLVQAGGSLRLSCAASGSIFDFYAMGWYRQAPGKERELVATITASGGSTYYADSVKGRFTISRDNAKNTVYLQMNSLKPEDTAVSYCNADSVYWGQGTQVTVSS	low polyreactivity
QVQLVESGGGLVQAGGSLRLSCAASGSIFDGYAMGGSRQAPGNERELLAAISSGTSTNYADSVKGRFTISRDNAKNTVYLQMNSLKPEDTAVYYCNAYPPYLYATYDYWGQGTQVTVSS	low polyreactivity
QVQLVESGGGLVQAGGSLRLSCAASGSIFDGYAMGWYRQAPGKEREFVAAITKRTGRTYYADSVKGRFTISRDNAKNTVYLQMNSLKPEDTAVYYCAAAIPRFSAGHYDYCGQGTQVTVSS	high polyreactivity
QVQLVESGGGLVQAGGSLRLSCAASGSIFDGYAMGWYRQAPGKEREFVASIRFSTGRTYYADSVKGRFTISRDNAKNSVYLQMNSLKPEDTAGYYCNAPQGFVWRYSSWGPYDYWGQGTQVTVSS	high polyreactivity
QVQLVESGGGLVQAGGSLRLSCAASGSIFDHNAMGWYRQAPGKEREFVARITSSGGGTYYADSVKGRFTISRDNAKNTVYLQMNSLKPEDTAVYYCAKTYYRQGARYPTLFYYWGQGTQVTVSS	low polyreactivity
QVQLVESGGGLVQAGGSLRLSCAASGSIFDKNAMGWYRQAPGKERELVAAISRSGGRTYYADSVKGRFTISRDNAKNTVYLQMNSLKPEDTAVYYCNAVYYYRPYWRQSTLSQYGYWGQGTQVTVSS	high polyreactivity
QVQLVESGGGLVQAGGSLRLSCAASGSIFDLNAMGWYRQAPGKERELVAAISKSGGSTYYADSVKGRFTISRDNAKNTVYLQMNSLKPEDTAVYYCAKDRKYHLSGGYDYWGQGSQVTVSS	low polyreactivity
QVQLVESGGGLVQAGGSLRLSCAASGSIFDLNAMGWYRQAPGKERELVAAISSGGGTYYADSVKGRFTISRDNAKNTVYLKMNSLKPEDTAVYYCKRVTRWTYNYWGQGTQVSVSS	high polyreactivity
QVQLVESGGGLVQAGGSLRLSCAASGSIFDLNAMGWYRQAPGKERELVAAISSVGGTYYADSVKGRFTISRDNAKNTGYLQMNSLKPEDTAVYYCNRVTRWTYNYWGQGTQVTVSS	high polyreactivity
QVQLVESGGGLVQAGGSLRLSCAASGSIFDLYAMGWYRQAPGKERELVAGISYSGGSTYYADSVKGRFTISRDNAKNTVYLQMNSLKPEDTAVYYCAADDSYWYDNYIDEAAANTFDYWGQGTQVTVSS	low polyreactivity
QVQLVESGGGLVQAGGSLRLSCAASGSIFDNYAMGWYRQAPGKERELVAAINFSDGDTYYADSVKGRFTISRDNAKNTVYLQMNSLKPEDTAVYYCAAEVWYPPEYYDEYDYWGQGTQVTVSS	low polyreactivity
QVQLVESGGGLVQAGGSLRLSCAASGSIFDPYAMGGYRQAPGKERELVAAISFITGGTYYADSVMGRFTISRDNAMNTVYLQMNSLKPEDTAVYYCNADYFYKGGWVWRDEYWGQGTQVTVSS	high polyreactivity
QVQLVESGGGLVQAGGSLRLSCAASGSIFDPYAMGWYRQAPGKEREFVAAISWSGGSTYYADSVKGRFTISRDNAKNTVYLQMNSLIPEDTAVYYCAAGTQWYSQVYIYYYWGQGTQVTVSS	low polyreactivity
QVQLVESGGGLVQAGGSLRLSCAASGSIFDPYAMGWYRQAPGKERELVAAITASASSTYYADSVKGRFTISRDNAKNTVYLQMYSLKPEDTAVYYCAADRANWEYLLSLLGYDYWGQGTQVTVSS	low polyreactivity
QVQLVESGGGLVQAGGSLRLSCAASGSIFDRNAMGWYRQAPGKERELVAAISVSGGSTYYADSVKGRFTISRDNAKNTVYLQMNSLKPEDTAVYYCAKAGRYANLPYGYWGQGTQVTVSS	high polyreactivity
QVQLVESGGGLVQAGGSLRLSCAASGSIFDRNAMGWYRQAPGKERELVASISYSGGTTYADSVKGRFTISRDNAKNTVYLQMNSLKPEDTAVYYCNAGGVYPRFTFLEQGYEMDYWGQGTQVTVSS	low polyreactivity
QVQLVESGGGLVQAGGSLRLSCAASGSIFDRYAMGWYRKAPGKERELVASITYSGGSTYYADSVKGRFTISRDNAKNTVYLQMKSLKPEDTAVYYCAKVIRLVGDYDYWGQGTQVTVSS	low polyreactivity
QVQLVESGGGLVQAGGSLRLSCAASGSIFDRYAMGWYRQAPGKERELVASISNRGGRTFYADSVKGRFTISRDNAKNTVYLQMNSLKPEDTAVYYCARKTYYTGDFLGREYGYWGQGTQVTVSS	low polyreactivity

Sequence	polyreactivity (PSR sort gate)
QVQLVESGGGLVQAGGSLRLSCAASGSIFDSKAMGWYRQAPGKERELVAAISQGGDDTYYADSVKGRFTISRDNAKNTVYLQMNSLKPEDTAVYYCAAEFFYITGAYDYWGQGTQVTVSS	low polyreactivity
QVQLVESGGGLVQAGGSLRLSCAASGSIFDSNAMGWYRQAPGKERELVADIRGIGGSTYYADSVKGRFTISRDHAKNTVYLQMNSLKPEDTAVYYCNTSTLGGYYWGQGTQVTVSS	low polyreactivity
QVQLVESGGGLVQAGGSLRLSCAASGSIFDSYAMGWYRQAPGKERELVASISSDGGGTYYADSVKGRFTISRDNAKNTVYLQMNSLKPEDTAVYYCARTRTYNSRTMDYWGQGTQVTVSS	low polyreactivity
QVQLVESGGGLVQAGGSLRLSCAASGSIFDSYANGWSRQAPGKERELVAAISSRGGRTYYADSVKGRFTISRDNAKNTVYLQMNSLKPEDTAVYYCAAGLYRYYWYGFDYWGQGTQVTVSS	high polyreactivity
QVQLVESGGGLVQAGGSLRLSCAASGSIFDTYAMGCYRPAPGKERELVAAICWSDTSTYADSVKGRFTISRDNAKNTVYLQMNSMKTEDTAVSYCAADFYYYSYYEYVYWGQGTLVTVSS	low polyreactivity
QVQLVESGGGLVQAGGSLRLSCAASGSIFDTYAMGWYRQAPGKERELVAAITWSGSSTYYADSVKGRFTISRDNAKNTVSLQMNRLKPEDTAVYYCAKRQYLYTSKYDYWGQGTQVTVSS	high polyreactivity
QVQLVESGGGLVQAGGSLRLSCAASGSIFDVNAMGWYRQAPGKERELVAGISWSGGSTYYADSVKGRFTISRDNAKNTVYLQMNSLKPEDTAVYYCNAEGPIYFYFYRGMDYWGQGTQVTVSS	low polyreactivity
QVQLVESGGGLVQAGGSLRLSCAASGSIFDVYAMGWYRQAPGKERELVAAITGGGSTYYADSVKGRFTISRDNAKNSVYLQMNSLKPEDTAVYYCNADRRRRSGGFAGWHFQRNEYWGHGTQVTVSS	low polyreactivity
QVQLVESGGGLVQAGGSLRLSCAASGSIFDVYGMGWYRQAPGKEREFVADITSRGTRTYYADSVKGRFTISRDNAKNTVYLQMNSLKPEDTAVYYCNADRYTAVRAYDYWGQGTQVTVSS	low polyreactivity
QVQLVESGGGLVQAGGSLRLSCAASGSIFDWNAMGWYRQAPGKERELVAAISGTGGTKYADSVKGRFTISRDNAKNTVYLQMNSLKPEDTAVYYCAVGLVPLRDGWHFYYEFDSWGQGTQVTVSS	low polyreactivity
QVQLVESGGGLVQAGGSLRLSCAASGSIFDWYVMGWYRQARGKERELVAAITSTGSTYYADSVKGRFTISRDNAKNTVYLQMNSLKPEDTAVYYCAAQRYSTFTYDYWGQGTQVTVSS	low polyreactivity
QVQLVESGGGLVQAGGSLRLSCAASGSIFDYNAMGWYRQAPGKERELVAGITFIGGSTYYADSVKGRFTISRDNAKNTVYLQMNSLKPEDTAVYYCNADVAPGIFYGYESWGQGTQVSVSS	low polyreactivity
QVQLVESGGGLVQAGGSLRLSCAASGSIFDYNTMGWYRQAPGKERELVATISWSGDSTYYADSVKGRFTISRDNAKNTVYLQMNSLKPEDTAVYYCAKTAPPERYSAWRYSWGQGTQVTVSS	low polyreactivity
QVQLVESGGGLVQAGGSLRLSCAASGSIFDYNTMGWYRQAPGKVRELVAVISGTGGSTYYADSVKGRFTISRVNAKNTVYVQLNSMKPEDTAVYYCAAEGYYSNYHYWGQGTQVTVSS	low polyreactivity
QVQLVESGGGLVQAGGSLRLSCAASGSIFDYYAMGWYRQAPGKETELVAAITYGGGSTYYADSVKGRFTISRDNAKNTVYLQMNSLKPEDTAVYYCNALGENYQFNYWGQGTQVTVSS	low polyreactivity
QVQLVESGGGLVQAGGSLRLSCAASGSIFDYYTMGCYRQAAGKERELVATIRSGDSTNYADSLKGRFTISRDIEMNRVYLQMNSLKPEDTAVYYCAAVDGAYPTLYDYWGQGTQVTVSS	low polyreactivity
QVQLVESGGGLVQAGGSLRLSCAASGSIFDYYVMGWYRQAPGKERELVAAISWSGASTYYADSVKGRFTISRDNAKNTVYLHMNSLKPEDTAVYYCAADYGVNTLIDYDYWGQGTQVTVSS	low polyreactivity
QVQLVESGGGLVQAGGSLRLSCAASGSIFEDNVMGWYRQAPGKEREFVADITAIGGSTYYADSVKGRFTISRDNAKNTVYLQMNSLKPEDTAVDYCAAGFYVDYQLYEYWGQGTQVTVSS	high polyreactivity
QVQLVESGGGLVQAGGSLRLSCAASGSIFEEYAMGWYRHAPGKERELVARIDESGGSTYYADSVKGRFTISRDNAKNTVYLQMNSLKPEDTAVYYCAAERYSDSWGYYSVDEGSWEMDYWGQGTQVTVSS	low polyreactivity
QVQLVESGGGLVQAGGSLRLSCAASGSIFEFYTMGWYRQAPGKERELVAAITASGGSTYYADSVKGRFTISRDNAKNTVYLQMNSLKPEDTAVYYCAARFRKQSKTPSPRRYDSWGQGTQVTVSS	high polyreactivity
QVQLVESGGGLVQAGGSLRLSCAASGSIFEGNARGWYRQAPGKERELVAAISTTGGITYYADAVKGRFTISRANAKNTVDLQKNSLKPEDTAVDYCAADPSQPRNDSSNYDYWGQGTQVTVSS	low polyreactivity

From the nanobody polyreactivity screen of Harvey et al. (2022)
